Assay results from US20040009165A1.

Target: macrophage mannose receptor on murine macrophage cell line J774E (murine) (UniProt Q61830)
Assay: cell-based or functional assay

Cerezyme (recombinantly produced glucocerebrosidase) (from UniProt P04062 40-536) (enzyme)
Vmax for uptake in J774E cells: 0.518

pGC54: GCB-GGGG linker-Saposin C fusion protein (enzyme)
Vmax for uptake in J774E cells: 0.871
